Data as given in patent US9212226B2, “Amino acid sequences directed against CXCR4 and other GPCRs and compounds comprising the same” (Ablynx N.V., priority 2008, dated 2015).

Tests used:
CXCR4 = CXCR4 (Homo sapiens, UniProt P61073); experiment: Phage ELISA binding assay on CHO-CXCR4 versus CHO membranes; design: expressed in transfected cells; host or cells: CHO cells (membrane preparation); details: monoclonal phages, CHO-CXCR4 vs CHO membranes
Experimental: FIG. 2. Results from Phage ELISA (as described in example 1.5).
In order to determine binding specificity of the Nanobodies, 15 ul of the produced phage were tested in an Phage ELISA binding assay.
In short, 2 ug in 100 ul PBS of membrane expressing either CXCR4 (CHO-CXCR4) or a non relevant GPCR(CHO) were coated directly on Maxisorp microtiter plates (Nunc) overnight at 4 C. Free binding sites were blocked using 4% Marvel in PBS for 1 h. Next, 15 ul of monoclonal phages was added in 100 ul 1% Marvel PBS for 2 hours. […] Binding specificity (binding to CHO-CXCR4) was determined based on OD values compared to controls (binding to CHO).

CXCR3 = molecular target: T1, CXCR3 (Homo sapiens, UniProt P49682); experiment: Binding of [125I]-238D2 / [125I]-238D4 to membranes from HEK293T cells expressing CXCR4 or CXCR3; details: radiolabelled Nanobody
T1 sequence (P49682 1-368): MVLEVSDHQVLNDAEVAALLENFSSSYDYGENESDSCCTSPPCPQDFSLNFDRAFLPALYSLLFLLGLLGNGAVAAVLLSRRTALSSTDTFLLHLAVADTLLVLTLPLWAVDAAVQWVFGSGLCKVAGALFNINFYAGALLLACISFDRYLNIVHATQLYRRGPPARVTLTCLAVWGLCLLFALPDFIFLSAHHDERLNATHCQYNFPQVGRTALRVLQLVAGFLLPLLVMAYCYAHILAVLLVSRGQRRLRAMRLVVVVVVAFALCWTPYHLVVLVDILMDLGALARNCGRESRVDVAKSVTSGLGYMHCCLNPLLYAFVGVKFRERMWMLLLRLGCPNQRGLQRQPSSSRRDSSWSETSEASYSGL

CXCR4, sequence (P61073 with tags, fused parts or gaps isoform P61073-2 limits assumed): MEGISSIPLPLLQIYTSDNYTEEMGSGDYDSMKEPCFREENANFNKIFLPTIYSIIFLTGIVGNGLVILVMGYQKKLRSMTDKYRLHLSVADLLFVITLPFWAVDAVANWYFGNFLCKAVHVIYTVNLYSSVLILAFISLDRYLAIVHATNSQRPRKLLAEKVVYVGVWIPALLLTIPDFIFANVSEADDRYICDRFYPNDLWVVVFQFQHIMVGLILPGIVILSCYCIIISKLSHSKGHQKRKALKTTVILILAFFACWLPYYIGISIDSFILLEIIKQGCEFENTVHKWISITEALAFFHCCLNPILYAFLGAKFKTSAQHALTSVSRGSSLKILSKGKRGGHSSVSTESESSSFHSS

B1: 238F3: Nanobody (VHH) raised against human CXCR4, SEQ ID NO: 247 (protein)
VHH: EVQLVESGGGLAQAGGSLRLSCAASGRTYAMGWFRQAPGKEREFVTTSRLITDNIIYADSVKGRFTLTRDNGKNTVYLQMDSLKPDDTAVYFCAARQNYSRSVFGAKDYDYWGQGTQVTVSS
modifications: Nanobody, Nanobody constructs or fragments thereof
specificity toward CXCR4 expressing membrane compared to non-expressing membrane (CXCR4): high specificity

B2: [^125I]-238D4: 125I-labeled Nanobody 238D4 used as radioligand (protein)
VHH: EVQLMESGGGLVQAGGSLRLSCAASGRTFNNYAMGWFRRAPGKEREFVAAITRSGVRSGVSAIYGDSVKDRFTISRDNAKNTLYLQMNSLKPEDTAVYTCAASAIGSGALRRFEYDYSGQGTQVTVSS
binding to CXCR4 membranes compared to CXCR3 membranes (CXCR3): selectively bind

B3: [^125I]-238D2: 125I-labeled Nanobody 238D2 used as radioligand (protein)
VHH: EVQLVESGGGLVQTGGSLRLSCAASGFTFSSYAMSWVRQAPGKGLEWVSGIKSSGDSTRYAGSVKGRFTISRDNAKNMLYLQMYSLKPEDTAVYYCAKSRVSRTGLYTYDNRGQGTQVTVSS
binding to CXCR4 membranes compared to CXCR3 membranes (CXCR3): selectively bind
